The values below are quoted from earlier work in PMC7179994.

pKd: −log10 of the molar value. Where two headings read alike, the source gives them in different places.

For data set [1], the target named is VLDL receptor (Homo sapiens) (UniProt P98155).
Data set [2] has as its target VE-cadherin (Homo sapiens) (UniProt P33151).
For data set [3] the target is unchanged. This is another data set of the same source.

Sequence of VE-cadherin (Homo sapiens) (P33151 48-599): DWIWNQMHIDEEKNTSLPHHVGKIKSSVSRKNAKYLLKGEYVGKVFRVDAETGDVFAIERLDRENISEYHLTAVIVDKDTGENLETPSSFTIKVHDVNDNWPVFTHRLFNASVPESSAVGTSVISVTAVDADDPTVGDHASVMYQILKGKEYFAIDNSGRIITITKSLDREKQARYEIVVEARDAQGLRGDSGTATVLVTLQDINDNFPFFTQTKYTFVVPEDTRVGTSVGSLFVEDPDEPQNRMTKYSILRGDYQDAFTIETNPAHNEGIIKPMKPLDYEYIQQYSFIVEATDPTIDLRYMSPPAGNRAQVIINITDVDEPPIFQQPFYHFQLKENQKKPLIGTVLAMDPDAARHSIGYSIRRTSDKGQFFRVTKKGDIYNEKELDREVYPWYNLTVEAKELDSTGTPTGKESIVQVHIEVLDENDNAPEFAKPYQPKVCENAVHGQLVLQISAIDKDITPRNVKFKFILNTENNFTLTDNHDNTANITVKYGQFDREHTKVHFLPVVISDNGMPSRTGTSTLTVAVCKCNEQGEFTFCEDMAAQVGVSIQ
Sequence of fibrin β15–42 15-42 (P02675 15-42): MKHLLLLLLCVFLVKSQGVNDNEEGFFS
Sequence of (β15–44)2 15-44 (P02675 15-44): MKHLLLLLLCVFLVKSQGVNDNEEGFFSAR

Take fibrin (from UniProt P02671): the pKd (usually the negative decadic logarithm of the Kd, by convention in mol/L) in data set [1] is 8.04.

For (β15–44)2 15-44 (from UniProt P02675), the pKd in data set [2] is 6.15.

On to “fibrin β15–42 15-42 (from UniProt P02675)”, for which, in data set [3], the pKd was 3.57.
